Experiments:
rPcrV protein = assay: Binding kinetics on Bio-Rad ProteOn XPR36; parameters: species or system Pseudomonas aeruginosa; settings: antibody captured, rPcrV injected; FIG. 12G-H
Procedure: Binding kinetics of V2L2-GL and V2L2-MD were measured using a Bio-Rad ProteOn™ XPR36 instrument. Antibodies were captured on a GLC bisensor chip using anti-human IgG reagents. rPcrV protein was injected at multiple concentrations and the dissociation phase followed for 600 seconds. Data was captured and analyzed using ProteOn Manager software. […] The clone V2L2-MD had increased Kd by 2-3 folds over V2L2-GL.

[1] = system: P. aeruginosa 6077 (exoU+); assay: Rabbit red blood cell lysis inhibition assay with strain 6077; assay type: cell-based, Pseudomonas aeruginosa; settings: strain 6077; FIG. 12D-E
Procedure: Percent inhibition of cytotoxicity analysis was analysed for the parental V2L2 mAb, mAb166 (positive control) and R347 (negative control), where the antibodies were administered to cultured broncho-epithelial cell line A549 combined with log-phase P. aeruginosa strain 6077 (exoU+) at a MOI of approximately 10. A549 lysis was assayed by measuring released lactate dehydrogenase (LDH) activity and lysis in the presence of mAbs was compared to wells without mAb to determine percent inhibition. The V2L2 mAb, mAb166 (positive control) and R347 (negative control) were evaluated for their ability to prevent lysis of RBCs, where the antibodies were mixed with log-phase P. aeruginosa 6077 (exoU^+) and washed rabbit red blood cells (RBCs) and incubated for 2 hours at 37°. Intact RBCs were pelleted and the extent of lysis determined by measuring the OD405 of the cell-free supernatant. Lysis in the presence of anti-PcrV mAbs was compared to wells without mAb to determine percent inhibition.

[2] = system: P. aeruginosa 6077 (O11, cytotoxic); assay: Acute pneumonia model in mice, strain 6077; assay type: in vivo, Pseudomonas aeruginosa; settings: WapR-004 5 and 1 mg/kg; 6077 (O11) 8×10^5 or 6×10^5 CFU; FIG. 6E-F
Procedure: (§1) Antibodies or PBS were administered 24 hours before infection in each model. P. aeruginosa acute pneumonia, keratitis, and thermal injury infection models were performed as described (DiGiandomenico, A., et al., Proc Natl Acad Sci USA 104, 4624-4629 (2007)), with modifications. In the acute pneumonia model, BALB/c mice (The Jackson Laboratory) were infected with P. aeruginosa strains suspended in a 0.05 ml inoculum. In the thermal injury model, CF-1 mice (Charles River) received a 10% total body surface area burn with a metal brand heated to 92° C. for 10 seconds. Animals were infected subcutaneously with P. aeruginosa strain 6077 at the indicated dose. For organ burden experiments, acute pneumonia was induced in mice followed by harvesting of lungs, spleens, and kidneys 24 hours post-infection for determination of CFU.

P. aeruginosa 6294 (O6) = assay: Acute pneumonia model in mice, strain 6294; assay type: in vivo, Pseudomonas aeruginosa; settings: for Overall Impression, lung histology: BALB/c mice
Procedure: as §1

[3] = system: P. aeruginosa serogroup 05 strain (PAO1.lux); assay: Opsonophagocytic killing (OPK) assay with luminescent PAO1.lux, HL-60 cells and baby rabbit serum; assay type: cell-based, Pseudomonas aeruginosa; settings: FIG. 2A
Procedure: (§2) This example describes the evaluation of prioritized human IgG1 antibodies to promote OPK of P. aeruginosa. […] OPK assays were performed as described in (DiGiandomenico, A., et al., Infect Immun 72, 7012-7021 (2004)), with modifications. Briefly, assays were performed in 96-well plates using 0.025 ml of each OPK component; P. aeruginosa strains; diluted baby rabbit serum; differentiated HL-60 cells; and monoclonal antibody. In some OPK assays, luminescent P. aeruginosa strains, which were constructed as described (Choi, K. H., et al., Nat Methods 2, 443-448 (2005))., were used. Luminescent OPK assays were performed as described above but with determination of relative luciferase units (RLUs) using a Perkin Elmer ENVISION Multilabel plate reader (Perkin Elmer).

[4] = system: P. aeruginosa serogroup 011 strain (9882-80.lux); assay: OPK assay with luminescent 9882-80.lux; assay type: cell-based, Pseudomonas aeruginosa; settings: FIG. 2B
Procedure: as §2
The ability of the WapR-004 and Cam-003 antibodies to mediate OPK activity against another clinically relevant O-antigen serotype strain, 9882-80.lux, was evaluated.

[5] = system: P. aeruginosa 6206 (O11-ExoU+); assay: Acute pneumonia model in mice, strain 6206; assay type: in vivo, Pseudomonas aeruginosa
Procedure: as §1

[6] = system: P. aeruginosa PAO1.lux attachment to A549 cells; assay: Cell attachment assay, PAO1.lux on A549 cells; assay type: cell-based, Pseudomonas aeruginosa; settings: MOI 10, FIG. 4
Procedure: Anti-Psl antibodies were added to a confluent monolayer of A549 cells (an adenocarcinoma human alveolar basal epithelial cell line) grown in opaque 96-well plates (Nunc Nunclon Delta). Log-phase luminescent P. aeruginosa PAO1 strain (PAO1.lux) was added at an MOI of 10. After incubation of PAO1.lux with A549 cells at 37° C. for 1 hour, the A549 cells were washed, followed by addition of LB+0.5% glucose. Bacteria were quantified following a brief incubation at 37° C. as performed in the OPK assay described in Example 2. Measurements from wells without A549 cells were used to correct for non-specific binding.

[7] = system: P. aeruginosa 6077 (O11-cytotoxic); assay: Corneal infection (keratitis) model in mice, strain 6077; assay type: in vivo, Pseudomonas aeruginosa; settings: antibody 24 h prior to 6077 (2×10^6 CFU); FIG. 8A-D, F-G
Procedure: as §1
Cam-003 and WapR-004 efficacy was next evaluated in a P. aeruginosa corneal infection model which emphasizes the pathogens ability to attach and colonize damaged tissue. […] FIG. 8 (H): The activity of anti-Psl and anti-PcrV monoclonal antibodies V2L2 was tested in a P. aeruginosa mouse ocular keratitis model. C3H/HeN mice were injected intraperitoneally (IP) with PBS or a control IgG1 antibody (R347) at 45 mg/kg or WapR-004 (α-Psl) at 5 mg/kg or V2L2 (α-PcrV) at 5 mg/kg, 16 hours prior to infection with 6077 (O11-cytotoxic−1×10^6 CFU) Immediately before infection, mice were anesthetized followed by initiation of three 1 mm scratches on the cornea and superficial stroma of one eye of each mouse using a 27-gauge needle under a dissection microscope, followed by topical application of P. aeruginosa 6077 strain in a 5 μl inoculum. Eyes were photographed at 48 hours post infection followed by corneal grading by visualization of eyes under a dissection microscope. Grading of corneal infection was performed as previously described by Preston et al. (Preston, M J., 1995, Infect. Immun. 63:3497). Briefly, infected eyes were graded 48 h after infection with strain 6077 by an investigator who was unaware of the animal treatments. The following grading scheme was used: grade 0, eye macroscopically identical to an uninfected eye; grade 1, faint opacity partially covering the pupil; grade 2, dense opacity covering the pupil; grade 3, dense opacity covering the entire pupil; grade 4, perforation of the cornea (shrinkage of the eyeball).

[8] = 1.33×10^7 CFU 6294, 0.2 mg/kg (combination 0.1 mg/kg ea), Table 6A
[9] = 1.7×10^7 CFU 6294, 0.2 mg/kg (combination 0.1 mg/kg ea), Table 6B
[10] = 5.25×10^5 cfu 6206, single antibody: R347 2.1 mg/kg, V2L2 0.1 mg/kg, WapR-004 0.5 mg/kg, Table 5
[11] = 9.25×10^5 CFU 6206, 0.2 mg/kg (combination 0.1 mg/kg ea), Table 7

B1: V2L2-MD: optimized V2L2-GL mAb; germlined lead optimized anti-PcrV antibody used in Bs4-GLO (antibody, V domains shown)
VH: EMQLLESGGGLVQPGGSLRLSCAASGFTFSSYAMNWVRQAPGEGLEWVSAITISGITAYYTDSVKGRFTISRDNSKNTLYLQMNSLRAGDTAVYYCAKEEFLPGTHYYYGMDVWGQGTTVTVSS
VL: AIQMTQSPSSLSASVGDRVTITCRASQGIRNDLGWYQQKPGKAPKLVIYSASTLQSGVPSRFSGSGSGTDFTLSISSLQPDDFATYYCLQDYNYPWTFGQGTKVEIK
modifications: V2L2-MD VH; V2L2-MD and V2L2-GL VL
For B1, which “Kd increased over V2L2-GL” value (rPcrV protein) is on record?
The value was 2-3 folds.

What about the “prevention of RBC lysis” value [1] of the same molecule?
The value was “demonstrated prevention of RBC lysis”.

B2: WapR-004: anti-Psl human IgG1 monoclonal antibody; VH SEQ ID NO: 11, VL SEQ ID NO: 12 (antibody, V domains shown)
VH: EVQLLESGPGLVKPSETLSLTCNVAGGSISPYYWTWIRQPPGKGLELIGYIHSSGYTDYNPSLKSRVTISGDTSKKQFSLHVSSVTAADTAVYFCARGDWDLLHALDIWGQGTLVTVSS
VL: EIVLTQSPSSLSTSVGDRVTITCRASQSIRSHLNWYQQKPGKAPKLLIYGASNLQSGVPSRFSGSGSGTDFTLTISSLQPEDFATYYCQQSYSFPLTFGGGTKLEIK
modifications: WapR-004 VH; WapR-004 & WarR-004RAD VL
Which survival [2] does the source give for B2 here?
Its survival is “significant concentration-dependent survival”.

What about the “Hemorrhage, extent in words” value (P. aeruginosa 6294 (O6); [8]) of the same molecule?
Its value is “Extensive”.

What about the “Inflammatory Infiltrate” value (P. aeruginosa 6294 (O6); [8]) of the same molecule?
Its value is “PMN 3+”.

What about the “Involved Lung Surface Area” value (P. aeruginosa 6294 (O6); [8]) of the same molecule?
The value was 57%.

And the Bacteria (P. aeruginosa 6294 (O6); [9])?
Its Bacteria is “Neg-2+”.

And the “Inflammatory Infiltrate” value (P. aeruginosa 6294 (O6); [9])?
Its value is “PMN 2+”.

And the “Involved Lung Surface Area” value (P. aeruginosa 6294 (O6); 1.7×10^7 CFU 6294, 0.2 mg/kg, Table 6B)?
The value was 40%.

What about the “organ burden after induction of acute pneumonia” value (P. aeruginosa 6294 (O6); 6294 (~1×10^7 CFU), 15, 5, 1 mg/kg, FIG. 7E) of the same molecule?
Its value is “reduced organ burden”.

What about the “Overall Impression, lung histology” value (P. aeruginosa 6294 (O6); [8]) of the same molecule?
The value was “Broncho interstitial pneumonia”.

What about the “Overall Impression, lung histology” value (P. aeruginosa 6294 (O6); [9]) of the same molecule?
Its value is “Broncho interstitial pneumonia”.

And the “OPK activity, in words” value [3]?
Its value is “superior OPK activity”.

And the “OPK activity against strain 9882-80 (O11)” value [4]?
Its value is “extends to strain 9882-80 (O11)”.

What about the “organ burden / tissue clearance (lung, spleen, kidney CFU)” value ([5]; 5.25×10^5 cfu 6206, V2L2 0.1 mg/kg, W4-RAD 0.5 mg/kg, combination, 24 h post infection, FIG. 15) of the same molecule?
The value was “effective in lowering organ burden”.

What about the “Inflammatory Infiltrate” value [5, 10] of the same molecule?
Its value is “PMN 2-3+”.

What about the “Involved Lung Surface Area” value [5, 10] of the same molecule?
The value was 50%.

What about the “Overall Impression, lung histology” value [5, 10] of the same molecule?
The value was “Broncho interstitial pneumonia”.

And the Bacteria [5, 11]?
Its Bacteria is “Neg-1+”.

And the “Inflammatory Infiltrate” value [5, 11]?
Its value is “PMN 1-2+”.

What about the “Involved Lung Surface Area” value [5, 11] of the same molecule?
The value was 36%.

And the “organ burden after induction of acute pneumonia” value ([5]; 6206 (~1×10^6 CFU), 15, 5, 1 mg/kg, FIG. 7F)?
The value was “reduced organ burden”.

What about the “Overall Impression, lung histology” value ([5]; BALB/c mice, 9.25×10^5 CFU 6206, 0.2 mg/kg (combination 0.1 mg/kg ea), Table 7) of the same molecule?
The value was “Broncho interstitial pneumonia”.

What about the “reduction of P. aeruginosa cell attachment to A549 cells compared to the negative control (up to)” value [6] of the same molecule?
The value was ~80%.

What about the “bacterial counts in total eye homogenates compared to negative control” value [7] of the same molecule?
Its value is “reduced bacterial counts in total eye homogenates”.

What about the “corneal pathology compared to negative control-treated animals” value [7] of the same molecule?
Its value is “significantly less pathology”.

Reference: US20150284450A1, “COMBINATION THERAPIES USING ANTI-PSEUDOMONAS PSL AND PCRV BINDING MOLECULES” (priority 2012, published 2015)
